This experiment concerns the target tubulin (rat). As to the kind of experiment: cell-based or functional assay.

The values that follow come from patent US20130004429A1.

Ends that are not written are not given here. * marks the point of attachment. Biotin = O=C1N[C@H]2[C@H](CS[C@H]2CCCCC(=O)*)N1

Turning to Biotin-YSSYSAPVSSSLSVRRSYSSSSGS [NFL-TBS40-63 peptide, biotinylated], the cells with altered microtubule network (immunocytochemistry), 9L rat glioma cells is 76.7%; the cells with altered microtubule network (immunocytochemistry), F98 rat glioma cells came out at 82%; the cells with altered microtubule network (immunocytochemistry), rat neurons turned out to be 8.5%; the cells with altered microtubule network (immunocytochemistry), rat primary astrocytes was determined as 4.7%.
